In paper PMC10238739, “Interaction with single-stranded DNA-binding protein modulates Escherichia coli RadD DNA repair activities” (The Journal of Biological Chemistry, 2023):

B1: Escherichia coli RadD, wild type (enzyme, E. coli)
chain: MIFTLRPYQQEAVDATLNHFRRHKTPAVIVLPTGAGKSLVIAELARLARGRVLVLAHVKELVAQNHAKYQALGLEADIFAAGLKRKESHGKVVFGSVQSVARNLDAFQGEFSLLIVDECHRIGDDEESQYQQILTHLTKVNPHLRLLGLTATPFRLGKGWIYQFHYHGMVRGDEKALFRDCIYELPLRYMIKHGYLTPPERLDMPVVQYDFSRLQAQSNGLFSEADLNRELKKQQRITPHIISQIMEFAATRKGVMIFAATVEHAKEIVGLLPAEDAALITGDTPGAERDVLIENFKAQRFRYLVNVAVLTTGFDAPHVDLIAILRPTESVSLYQQIVGRGLRLAPGKTDCLILDYAGNPHDLYAPEVGTPKGKSDNVPVQVFCPACGFANTFWGKTTADGTLIEHFGRRCQGWFEDDDGHREQCDFRFRFKNCPQCNAENDIAARRCRECDTVLVDPDDMLKAALRLKDALVLRCSGMSLQHGHDEKGEWLKITYYDEDGADVSERFRLQTPAQRTAFEQLFIRPHTRTPGIPLRWITAADILAQQALLRHPDFVVARMKGQYWQVREKVFDYEGRFRLAHELRG
B2: RadD R21E (enzyme)
chain: MIFTLRPYQQEAVDATLNHFERHKTPAVIVLPTGAGKSLVIAELARLARGRVLVLAHVKELVAQNHAKYQALGLEADIFAAGLKRKESHGKVVFGSVQSVARNLDAFQGEFSLLIVDECHRIGDDEESQYQQILTHLTKVNPHLRLLGLTATPFRLGKGWIYQFHYHGMVRGDEKALFRDCIYELPLRYMIKHGYLTPPERLDMPVVQYDFSRLQAQSNGLFSEADLNRELKKQQRITPHIISQIMEFAATRKGVMIFAATVEHAKEIVGLLPAEDAALITGDTPGAERDVLIENFKAQRFRYLVNVAVLTTGFDAPHVDLIAILRPTESVSLYQQIVGRGLRLAPGKTDCLILDYAGNPHDLYAPEVGTPKGKSDNVPVQVFCPACGFANTFWGKTTADGTLIEHFGRRCQGWFEDDDGHREQCDFRFRFKNCPQCNAENDIAARRCRECDTVLVDPDDMLKAALRLKDALVLRCSGMSLQHGHDEKGEWLKITYYDEDGADVSERFRLQTPAQRTAFEQLFIRPHTRTPGIPLRWITAADILAQQALLRHPDFVVARMKGQYWQVREKVFDYEGRFRLAHELRG
B3: RadD R49E (enzyme)
chain: MIFTLRPYQQEAVDATLNHFRRHKTPAVIVLPTGAGKSLVIAELARLAEGRVLVLAHVKELVAQNHAKYQALGLEADIFAAGLKRKESHGKVVFGSVQSVARNLDAFQGEFSLLIVDECHRIGDDEESQYQQILTHLTKVNPHLRLLGLTATPFRLGKGWIYQFHYHGMVRGDEKALFRDCIYELPLRYMIKHGYLTPPERLDMPVVQYDFSRLQAQSNGLFSEADLNRELKKQQRITPHIISQIMEFAATRKGVMIFAATVEHAKEIVGLLPAEDAALITGDTPGAERDVLIENFKAQRFRYLVNVAVLTTGFDAPHVDLIAILRPTESVSLYQQIVGRGLRLAPGKTDCLILDYAGNPHDLYAPEVGTPKGKSDNVPVQVFCPACGFANTFWGKTTADGTLIEHFGRRCQGWFEDDDGHREQCDFRFRFKNCPQCNAENDIAARRCRECDTVLVDPDDMLKAALRLKDALVLRCSGMSLQHGHDEKGEWLKITYYDEDGADVSERFRLQTPAQRTAFEQLFIRPHTRTPGIPLRWITAADILAQQALLRHPDFVVARMKGQYWQVREKVFDYEGRFRLAHELRG
B4: RadD R145E (enzyme)
chain: MIFTLRPYQQEAVDATLNHFRRHKTPAVIVLPTGAGKSLVIAELARLARGRVLVLAHVKELVAQNHAKYQALGLEADIFAAGLKRKESHGKVVFGSVQSVARNLDAFQGEFSLLIVDECHRIGDDEESQYQQILTHLTKVNPHLELLGLTATPFRLGKGWIYQFHYHGMVRGDEKALFRDCIYELPLRYMIKHGYLTPPERLDMPVVQYDFSRLQAQSNGLFSEADLNRELKKQQRITPHIISQIMEFAATRKGVMIFAATVEHAKEIVGLLPAEDAALITGDTPGAERDVLIENFKAQRFRYLVNVAVLTTGFDAPHVDLIAILRPTESVSLYQQIVGRGLRLAPGKTDCLILDYAGNPHDLYAPEVGTPKGKSDNVPVQVFCPACGFANTFWGKTTADGTLIEHFGRRCQGWFEDDDGHREQCDFRFRFKNCPQCNAENDIAARRCRECDTVLVDPDDMLKAALRLKDALVLRCSGMSLQHGHDEKGEWLKITYYDEDGADVSERFRLQTPAQRTAFEQLFIRPHTRTPGIPLRWITAADILAQQALLRHPDFVVARMKGQYWQVREKVFDYEGRFRLAHELRG
B5: RadD (Escherichia coli K-12; R49E) (protein)
chain: MIFTLRPYQQEAVDATLNHFRRHKTPAVIVLPTGAGKSLVIAELARLAEGRVLVLAHVKELVAQNHAKYQALGLEADIFAAGLKRKESHGKVVFGSVQSVARNLDAFQGEFSLLIVDECHRIGDDEESQYQQILTHLTKVNPHLRLLGLTATPFRLGKGWIYQFHYHGMVRGDEKALFRDCIYELPLRYMIKHGYLTPPERLDMPVVQYDFSRLQAQSNGLFSEADLNRELKKQQRITPHIISQIMEFAATRKGVMIFAATVEHAKEIVGLLPAEDAALITGDTPGAERDVLIENFKAQRFRYLVNVAVLTTGFDAPHVDLIAILRPTESVSLYQQIVGRGLRLAPGKTDCLILDYAGNPHDLYAPEVGTPKGKSDNVPVQVFCPACGFANTFWGKTTADGTLIEHFGRRCQGWFEDDDGHREQCDFRFRFKNCPQCNAENDIAARRCRECDTVLVDPDDMLKAALRLKDALVLRCSGMSLQHGHDEKGEWLKITYYDEDGADVSERFRLQTPAQRTAFEQLFIRPHTRTPGIPLRWITAADILAQQALLRHPDFVVARMKGQYWQVREKVFDYEGRFRLAHELRG
notes: full-length, untagged; expressed from plasmid pEAW724 in E. coli STL2669/pT7pol26; conventional chromatography
B6: RadD (Escherichia coli K-12; R145E) (protein)
chain: MIFTLRPYQQEAVDATLNHFRRHKTPAVIVLPTGAGKSLVIAELARLARGRVLVLAHVKELVAQNHAKYQALGLEADIFAAGLKRKESHGKVVFGSVQSVARNLDAFQGEFSLLIVDECHRIGDDEESQYQQILTHLTKVNPHLELLGLTATPFRLGKGWIYQFHYHGMVRGDEKALFRDCIYELPLRYMIKHGYLTPPERLDMPVVQYDFSRLQAQSNGLFSEADLNRELKKQQRITPHIISQIMEFAATRKGVMIFAATVEHAKEIVGLLPAEDAALITGDTPGAERDVLIENFKAQRFRYLVNVAVLTTGFDAPHVDLIAILRPTESVSLYQQIVGRGLRLAPGKTDCLILDYAGNPHDLYAPEVGTPKGKSDNVPVQVFCPACGFANTFWGKTTADGTLIEHFGRRCQGWFEDDDGHREQCDFRFRFKNCPQCNAENDIAARRCRECDTVLVDPDDMLKAALRLKDALVLRCSGMSLQHGHDEKGEWLKITYYDEDGADVSERFRLQTPAQRTAFEQLFIRPHTRTPGIPLRWITAADILAQQALLRHPDFVVARMKGQYWQVREKVFDYEGRFRLAHELRG
notes: as for B5
B7: RadD (Escherichia coli K-12) (protein)
chain: MIFTLRPYQQEAVDATLNHFRRHKTPAVIVLPTGAGKSLVIAELARLARGRVLVLAHVKELVAQNHAKYQALGLEADIFAAGLKRKESHGKVVFGSVQSVARNLDAFQGEFSLLIVDECHRIGDDEESQYQQILTHLTKVNPHLRLLGLTATPFRLGKGWIYQFHYHGMVRGDEKALFRDCIYELPLRYMIKHGYLTPPERLDMPVVQYDFSRLQAQSNGLFSEADLNRELKKQQRITPHIISQIMEFAATRKGVMIFAATVEHAKEIVGLLPAEDAALITGDTPGAERDVLIENFKAQRFRYLVNVAVLTTGFDAPHVDLIAILRPTESVSLYQQIVGRGLRLAPGKTDCLILDYAGNPHDLYAPEVGTPKGKSDNVPVQVFCPACGFANTFWGKTTADGTLIEHFGRRCQGWFEDDDGHREQCDFRFRFKNCPQCNAENDIAARRCRECDTVLVDPDDMLKAALRLKDALVLRCSGMSLQHGHDEKGEWLKITYYDEDGADVSERFRLQTPAQRTAFEQLFIRPHTRTPGIPLRWITAADILAQQALLRHPDFVVARMKGQYWQVREKVFDYEGRFRLAHELRG
notes: as for B5
B8: RadD (Escherichia coli K-12; R21E) (protein)
chain: MIFTLRPYQQEAVDATLNHFERHKTPAVIVLPTGAGKSLVIAELARLARGRVLVLAHVKELVAQNHAKYQALGLEADIFAAGLKRKESHGKVVFGSVQSVARNLDAFQGEFSLLIVDECHRIGDDEESQYQQILTHLTKVNPHLRLLGLTATPFRLGKGWIYQFHYHGMVRGDEKALFRDCIYELPLRYMIKHGYLTPPERLDMPVVQYDFSRLQAQSNGLFSEADLNRELKKQQRITPHIISQIMEFAATRKGVMIFAATVEHAKEIVGLLPAEDAALITGDTPGAERDVLIENFKAQRFRYLVNVAVLTTGFDAPHVDLIAILRPTESVSLYQQIVGRGLRLAPGKTDCLILDYAGNPHDLYAPEVGTPKGKSDNVPVQVFCPACGFANTFWGKTTADGTLIEHFGRRCQGWFEDDDGHREQCDFRFRFKNCPQCNAENDIAARRCRECDTVLVDPDDMLKAALRLKDALVLRCSGMSLQHGHDEKGEWLKITYYDEDGADVSERFRLQTPAQRTAFEQLFIRPHTRTPGIPLRWITAADILAQQALLRHPDFVVARMKGQYWQVREKVFDYEGRFRLAHELRG
notes: as for B5

The binders below were run against FAM labeled SSB C-terminal peptide … (E. coli) (assay: fluorescence polarisation; fluorescence anisotropy; 10 nM 5-FAM SSB C-terminal peptide, RadD or variant titrated up to 30 μM; 25 mM Tris-acetate pH 7.5, 200 mM potassium glutamate, 10 mM magnesium acetate, 1 mM DTT, 0.1 μg/ml BSA; 15 min at room temperature; apparent KD, one-site fit). Conditions: not given.
B1 gave a Kd of 5.4 µM. With B2 the Kd was > 30 µM. With B3 the Kd was > 30 µM. For B4, the Kd was > 30 µM.

Each binder was assayed against Escherichia coli single-stranded DNA-binding protein (SSB), full-length (E. coli, UniProt P0AGE0 1-178) (assay: cell-based or functional assay). Conditions: not given.
Chain of Escherichia coli single-stranded DNA-binding protein (SSB), full-length (P0AGE0 whole entry): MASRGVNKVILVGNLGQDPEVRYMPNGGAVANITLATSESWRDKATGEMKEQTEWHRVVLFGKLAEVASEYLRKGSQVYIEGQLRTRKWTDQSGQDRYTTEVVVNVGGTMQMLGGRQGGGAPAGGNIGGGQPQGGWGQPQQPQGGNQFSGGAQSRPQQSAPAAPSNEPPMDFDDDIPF
For B1, the “ATPase rate of 200 nM RadD on titration of SSB from 0 to 40 μM” value was ~3 fold.

The binders below were run on Nc1ncnc2c1ncn2[C@@H]1O[C@H](COP(=O)(O)OP(=O)(O)OP(=O)(O)O)[C@@H](O)[C@H]1O (assay: coupled spectrophotometric ATPase assay (NADH oxidation)). Conditions: no SSB, no DNA, 200 nM RadD, 10 mM Mg acetate, 200 mM K glutamate, pH 7.5, 37 °C.
Format: biochemical, Escherichia coli
From the text: coupled spectrophotometric ATPase assay (NADH oxidation) on RadD
B5 gave a Km of 464 ± 44 µM and a Vmax of 51 µM/min. Work on B6 yielded a Km of 698 ± 75 µM and a Vmax of 28.4 µM/min. For B7, the Km was 640 ± 76 µM and the Vmax was 29.4 µM/min. Binder B8 has a Km of 654 ± 52 µM and a Vmax of 42.3 µM/min.
